Source: patent US20230220589A1

Columns and labels:
[1] = target: M44-modified A NTAA target peptides (M44-A-P2-peptide); experiment: encoding assay; P2 Q
[2] = target: M44-modified L NTAA target peptides (M44-L-P2-peptide); experiment: encoding assay; P2 Q;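 also: fraction of recording tags encoded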
[3] = target: M44-modified S NTAA target peptides; experiment: encoding assay; P2 Q
[4] = target: M44-modified N NTAA target peptides; experiment: encoding assay; P2 Q
[5] = target: M44-modified I NTAA target peptides (M44-I-P2-peptide); experiment: encoding assay; P2 Q
[6] = target: M44-modified F NTAA target peptides (M44-F-P2-peptide); experiment: encoding assay; P2 Q;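 also: fraction of recording tags encoded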
[7] = target: M44-modified Q NTAA target peptides; experiment: encoding assay; P2 Q
[8] = target: M44-modified H NTAA target peptides; experiment: encoding assay; P2 Q
[9] = target: M44-modified V NTAA target peptides; experiment: encoding assay; P2 Q;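 also: fraction of recording tags encoded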
[10] = target: M44-modified M NTAA target peptides; experiment: encoding assay; P2 Q
[11] = target: M44-modified D NTAA target peptides; experiment: encoding assay; P2 Q;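 also: fraction of recording tags encoded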
[12] = target: M44-modified L NTAA target peptides (M44-L-P2-peptide); experiment: encoding assay; P2 N;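 also: fraction of recording tags encoded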
[13] = target: M44-modified S NTAA target peptides; experiment: encoding assay; P2 N
[14] = target: M44-modified W NTAA target peptides; experiment: encoding assay; P2 N;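 also: fraction of recording tags encoded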
[15] = target: M44-modified N NTAA target peptides; experiment: encoding assay; P2 N
[16] = target: M44-modified I NTAA target peptides (M44-I-P2-peptide); experiment: encoding assay; P2 N
[17] = target: M44-modified E NTAA target peptides; experiment: encoding assay; P2 N;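 also: fraction of recording tags encoded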
[18] = target: M44-modified F NTAA target peptides (M44-F-P2-peptide); experiment: encoding assay; P2 N;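 also: fraction of recording tags encoded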
[19] = target: M44-modified Q NTAA target peptides; experiment: encoding assay; P2 N
[20] = target: M44-modified H NTAA target peptides; experiment: encoding assay; P2 N
[21] = target: M44-modified V NTAA target peptides; experiment: encoding assay; P2 N;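 also: fraction of recording tags encoded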
[22] = target: M44-modified D NTAA target peptides; experiment: encoding assay; P2 N;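 also: fraction of recording tags encoded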
[23] = target: M44-modified A NTAA target peptides (M44-A-P2-peptide); experiment: encoding assay; P2 I
[24] = target: M44-modified L NTAA target peptides (M44-L-P2-peptide); experiment: encoding assay; P2 I;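 also: fraction of recording tags encoded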
[25] = target: M44-modified S NTAA target peptides; experiment: encoding assay; P2 I
[26] = target: M44-modified W NTAA target peptides; experiment: encoding assay; P2 I;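 also: fraction of recording tags encoded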
[27] = target: M44-modified N NTAA target peptides; experiment: encoding assay; P2 I
[28] = target: M44-modified I NTAA target peptides (M44-I-P2-peptide); experiment: encoding assay; P2 I
[29] = target: M44-modified E NTAA target peptides; experiment: encoding assay; P2 I;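 also: fraction of recording tags encoded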
[30] = target: M44-modified F NTAA target peptides (M44-F-P2-peptide); experiment: encoding assay; P2 I;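 also: fraction of recording tags encoded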
[31] = target: M44-modified T NTAA target peptides; experiment: encoding assay; P2 I
[32] = target: M44-modified G NTAA target peptides (M44-G-P2-peptide); experiment: encoding assay; P2 I;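 also: fraction of recording tags encoded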
[33] = target: M44-modified Q NTAA target peptides; experiment: encoding assay; P2 I
[34] = target: M44-modified H NTAA target peptides; experiment: encoding assay; P2 I
[35] = target: M44-modified V NTAA target peptides; experiment: encoding assay; P2 I;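 also: fraction of recording tags encoded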
[36] = target: M44-modified Y NTAA target peptides (M44-Y-P2-peptide); experiment: encoding assay; P2 I;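 also: fraction of recording tags encoded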
[37] = target: M44-modified M NTAA target peptides; experiment: encoding assay; P2 I
[38] = target: M44-modified D NTAA target peptides; experiment: encoding assay; P2 I;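 also: fraction of recording tags encoded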
[39] = target: M44-modified A NTAA target peptides (M44-A-P2-peptide); experiment: encoding assay; P2 T
[40] = target: M44-modified L NTAA target peptides (M44-L-P2-peptide); experiment: encoding assay; P2 T;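 also: fraction of recording tags encoded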
[41] = target: M44-modified N NTAA target peptides; experiment: encoding assay; P2 T
[42] = target: M44-modified I NTAA target peptides (M44-I-P2-peptide); experiment: encoding assay; P2 T
[43] = target: M44-modified E NTAA target peptides; experiment: encoding assay; P2 T;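 also: fraction of recording tags encoded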
[44] = target: M44-modified F NTAA target peptides (M44-F-P2-peptide); experiment: encoding assay; P2 T;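 also: fraction of recording tags encoded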
[45] = target: M44-modified T NTAA target peptides; experiment: encoding assay; P2 T
[46] = target: M44-modified P NTAA target peptides; experiment: encoding assay; P2 T;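 also: fraction of recording tags encoded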
[47] = target: M44-modified G NTAA target peptides (M44-G-P2-peptide); experiment: encoding assay; P2 T;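 also: fraction of recording tags encoded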
[48] = target: M44-modified Q NTAA target peptides; experiment: encoding assay; P2 T
[49] = target: M44-modified V NTAA target peptides; experiment: encoding assay; P2 T;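 also: fraction of recording tags encoded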
[50] = target: M44-modified Y NTAA target peptides (M44-Y-P2-peptide); experiment: encoding assay; P2 T;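 also: fraction of recording tags encoded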
[51] = target: M44-modified M NTAA target peptides; experiment: encoding assay; P2 T

B1: engineered M44-L binder (SEQ ID NO: 21) (designed binder, not shown: small tags and cut ends; large carriers)
chain: QVSVQPNFQQDKFLGRWFYAGHASNSSWYREKVAALSMAKLVVAPATDGGLNATETFLRKNQCETITSLLQPAGSLGSYSSRSPHGGSTWSTSVVETDYDQYALLYLQGSKGPGEDFRGAILASRTQTPRAELKEKFTAFSKAQGFTEDTIVFLPQTDKCMTEQ
Q: Which encoding yield [1] does the source give for B1 here?
A: 0.02

Q: What about the encoding yield [2] of the same binder?
A: 0.02

Q: And the encoding yield [3]?
A: 0.01

Q: What about the encoding yield [4] of the same binder?
A: 0.01

Q: What about the encoding yield [5] of the same binder?
A: 0

Q: What about the encoding yield [6] of the same binder?
A: 0.01

Q: What about the encoding yield [7] of the same binder?
A: 0.01

Q: What about the encoding yield [8] of the same binder?
A: 0.01

Q: And the encoding yield [9]?
A: 0.01

Q: What about the encoding yield [10] of the same binder?
A: 0

Q: What about the encoding yield [11] of the same binder?
A: 0.01

Q: And the encoding yield [12]?
A: 0.16

Q: What about the encoding yield [13] of the same binder?
A: 0.01

Q: And the encoding yield [14]?
A: 0.01

Q: What about the encoding yield [15] of the same binder?
A: 0.01

Q: What about the encoding yield [16] of the same binder?
A: 0.09

Q: What about the encoding yield [17] of the same binder?
A: 0.01

Q: What about the encoding yield [18] of the same binder?
A: 0

Q: What about the encoding yield [19] of the same binder?
A: 0.01

Q: And the encoding yield [20]?
A: 0.01

Q: What about the encoding yield [21] of the same binder?
A: 0.03

Q: What about the encoding yield [22] of the same binder?
A: 0.01

Q: And the encoding yield [23]?
A: 0.01

Q: What about the encoding yield [24] of the same binder?
A: 0.06

Q: What about the encoding yield [25] of the same binder?
A: 0.02

Q: And the encoding yield [26]?
A: 0.02

Q: And the encoding yield [27]?
A: 0.01

Q: What about the encoding yield [28] of the same binder?
A: 0.13

Q: And the encoding yield [29]?
A: 0.01

Q: And the encoding yield [30]?
A: 0.01

Q: What about the encoding yield [31] of the same binder?
A: 0.01

Q: And the encoding yield [32]?
A: 0.02

Q: And the encoding yield [33]?
A: 0.01

Q: What about the encoding yield [34] of the same binder?
A: 0.01

Q: What about the encoding yield [35] of the same binder?
A: 0.03

Q: What about the encoding yield [36] of the same binder?
A: 0.03

Q: And the encoding yield [37]?
A: 0.03

Q: And the encoding yield [38]?
A: 0.01

Q: And the encoding yield [39]?
A: 0.01

Q: What about the encoding yield [40] of the same binder?
A: 0.1

Q: What about the encoding yield [41] of the same binder?
A: 0.01

Q: What about the encoding yield [42] of the same binder?
A: 0.14

Q: And the encoding yield [43]?
A: 0.01

Q: What about the encoding yield [44] of the same binder?
A: 0.02

Q: What about the encoding yield [45] of the same binder?
A: 0.01

Q: And the encoding yield [46]?
A: 0.01

Q: And the encoding yield [47]?
A: 0.01

Q: And the encoding yield [48]?
A: 0.01

Q: What about the encoding yield [49] of the same binder?
A: 0.02

Q: And the encoding yield [50]?
A: 0.02

Q: And the encoding yield [51]?
A: 0

B2: engineered M44-L binder (SEQ ID NO: 31) (designed binder, not shown: small tags and cut ends; large carriers)
chain: QDSTQNLIPAPPLISVPLQPGFWTERFQGRWFLVGFAGNAVQKERQSRLTMQSLILELQEDNSYNITAINVRGQGCRYIISTLVPSSRPGQFTLGNIHSYPQIQSLDVQVADTDYDQFAMVFLQGTSENKQYFEVALAGRTKGLSDELKERFVSFAKSLGLKDNNIVFSVPTDQCIDN
Q: For B2, which encoding yield [1] is on record?
A: 0.04

Q: And the encoding yield [2]?
A: 0.12

Q: And the encoding yield [3]?
A: 0.04

Q: What about the encoding yield [4] of the same binder?
A: 0.02

Q: And the encoding yield [5]?
A: 0.03

Q: And the encoding yield [6]?
A: 0.04

Q: And the encoding yield [7]?
A: 0.01

Q: What about the encoding yield [8] of the same binder?
A: 0.04

Q: What about the encoding yield [9] of the same binder?
A: 0.03

Q: And the encoding yield [10]?
A: 0.01

Q: What about the encoding yield [11] of the same binder?
A: 0.01

Q: What about the encoding yield [12] of the same binder?
A: 0.14

Q: And the encoding yield [13]?
A: 0.03

Q: And the encoding yield [14]?
A: 0.01

Q: And the encoding yield [15]?
A: 0.03

Q: And the encoding yield [16]?
A: 0.03

Q: And the encoding yield [17]?
A: 0.02

Q: What about the encoding yield [18] of the same binder?
A: 0.01

Q: And the encoding yield [19]?
A: 0.02

Q: What about the encoding yield [20] of the same binder?
A: 0.03

Q: What about the encoding yield [21] of the same binder?
A: 0.04

Q: What about the encoding yield [22] of the same binder?
A: 0.01

Q: And the encoding yield [23]?
A: 0.03

Q: What about the encoding yield [24] of the same binder?
A: 0.15

Q: What about the encoding yield [25] of the same binder?
A: 0.03

Q: What about the encoding yield [26] of the same binder?
A: 0.05

Q: What about the encoding yield [27] of the same binder?
A: 0.05

Q: And the encoding yield [28]?
A: 0.14

Q: What about the encoding yield [29] of the same binder?
A: 0.03

Q: And the encoding yield [30]?
A: 0.05

Q: And the encoding yield [31]?
A: 0.04

Q: And the encoding yield [32]?
A: 0.02

Q: And the encoding yield [33]?
A: 0.01

Q: And the encoding yield [34]?
A: 0.03

Q: What about the encoding yield [35] of the same binder?
A: 0.06

Q: What about the encoding yield [36] of the same binder?
A: 0.07

Q: What about the encoding yield [37] of the same binder?
A: 0.03

Q: What about the encoding yield [38] of the same binder?
A: 0.03

Q: What about the encoding yield [39] of the same binder?
A: 0.03

Q: What about the encoding yield [40] of the same binder?
A: 0.15

Q: What about the encoding yield [41] of the same binder?
A: 0.02

Q: What about the encoding yield [42] of the same binder?
A: 0.07

Q: And the encoding yield [43]?
A: 0.01

Q: And the encoding yield [44]?
A: 0.05

Q: And the encoding yield [45]?
A: 0.04

Q: And the encoding yield [46]?
A: 0.02

Q: And the encoding yield [47]?
A: 0.04

Q: What about the encoding yield [48] of the same binder?
A: 0.02

Q: What about the encoding yield [49] of the same binder?
A: 0.04

Q: And the encoding yield [50]?
A: 0.07

Q: And the encoding yield [51]?
A: 0.01
